US20170304412A1 (YEDA RESEARCH AND DEVELOPMENT, published 2017)
Residue numbers refer to the chain shown, from its start. Each block holds one molecule with its values, some of them ahead of it.

How the values were obtained:
TACE catalytic domain = TACE catalytic domain (UniProt P78536 215-477, limits assumed); assay: cell-based or functional assay
MMP9 catalytic domain = MMP9 catalytic domain (UniProt P14780 107-444, limits assumed); assay: cell-based or functional assay
MMP7 catalytic domain = target: T1, MMP7 catalytic domain (UniProt P09237 95-267); assay: cell-based or functional assay
T1 sequence (looked up): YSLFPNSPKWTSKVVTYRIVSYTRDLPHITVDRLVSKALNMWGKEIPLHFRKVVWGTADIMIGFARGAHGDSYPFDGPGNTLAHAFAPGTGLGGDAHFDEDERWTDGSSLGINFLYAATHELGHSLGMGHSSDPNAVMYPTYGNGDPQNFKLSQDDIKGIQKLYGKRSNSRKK

[1] = target: T2, TACE pro-domain (wild type)
T2 chain: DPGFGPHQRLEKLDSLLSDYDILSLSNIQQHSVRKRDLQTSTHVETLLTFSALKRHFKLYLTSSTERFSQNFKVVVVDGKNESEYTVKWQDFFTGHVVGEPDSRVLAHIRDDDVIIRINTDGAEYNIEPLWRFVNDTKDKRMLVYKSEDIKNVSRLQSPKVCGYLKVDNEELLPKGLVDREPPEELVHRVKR

[2] = target: T3, TACE pro-domain R58A mutant
T3 chain: T2 chain with R36A

Chain of TACE catalytic domain (P78536 215-477 limits assumed): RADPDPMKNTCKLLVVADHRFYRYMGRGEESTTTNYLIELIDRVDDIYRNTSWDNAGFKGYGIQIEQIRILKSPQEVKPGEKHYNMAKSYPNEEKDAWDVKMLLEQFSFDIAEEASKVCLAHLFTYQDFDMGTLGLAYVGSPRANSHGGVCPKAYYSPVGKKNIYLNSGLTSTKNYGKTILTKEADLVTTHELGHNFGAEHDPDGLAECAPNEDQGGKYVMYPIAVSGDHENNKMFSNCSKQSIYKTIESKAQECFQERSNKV
Chain of MMP9 catalytic domain (P14780 107-444 limits assumed): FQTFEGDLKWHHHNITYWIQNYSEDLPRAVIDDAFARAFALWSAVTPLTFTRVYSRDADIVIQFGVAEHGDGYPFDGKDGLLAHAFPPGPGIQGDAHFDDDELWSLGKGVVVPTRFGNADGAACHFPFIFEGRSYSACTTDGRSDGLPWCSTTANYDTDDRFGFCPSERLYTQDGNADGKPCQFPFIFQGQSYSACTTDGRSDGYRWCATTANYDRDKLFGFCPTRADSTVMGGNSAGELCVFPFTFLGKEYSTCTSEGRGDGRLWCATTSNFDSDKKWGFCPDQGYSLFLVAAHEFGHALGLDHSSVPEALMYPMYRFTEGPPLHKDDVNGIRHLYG

- IC50, proteolytic activity of TACE (TACE catalytic domain): 55 nM
Molecule: TACE pro-domain R58A mutant (from UniProt P78536 23-214)

- IC50, catalytic activity on fluorogenic peptide (TACE catalytic domain): 119 nM
- IC50, proteolytic activity of TACE (TACE catalytic domain): 23 nM
- IC50, catalytic activity on fluorogenic peptide (MMP9 catalytic domain): 4480 nM
- IC50 relative to the IC50 towards TACE (MMP9 catalytic domain): 40 fold
- IC50, catalytic activity on fluorogenic peptide (MMP7 catalytic domain): 8790 nM
- IC50 relative to the IC50 towards TACE (MMP7 catalytic domain): 80 fold
B1: TACE pro-domain (wild type) (other)
chain: T2 chain

B2: Furin (protein)
chain: DVYQEPTDPKFPQQWYLSGVTQRDLNVKAAWAQGYTGHGIVVSILDDGIEKNHPDLAGNYDPGASFDVNDQDPDPQPRYTQMNDNRHGTRCAGEVAAVANNGVCGVGVAYNARIGGVRMLDGEVTDAVEARSLGLNPNHIHIYSASWGPEDDGKTVDGPARLAEEAFFRGVSQGRGGLGSIFVWASGNGGREHDSCNCDGYTNSIYTLSISSATQFGNVPWYSEACSSTLATTYSSGNQNEKQIVTTDLRQKCTESHTGTSASAPLAAGIIALTLEANKNLTWRDMQHLVVQTSKPAHLNANDWATNGVGRKVSHSYGYGLLDAGAMVALAQNWTTVAPQRKCIIDILTEPKDIGKRLEVRKTVTACLGEPNHITRLEHAQARLTLSYNRRGDLAIHLVSPMGTRSTLLAARPHDYSADGFNDWAFMTTHSWDEDPSGEWVLEIENTSEANNYGTLTKFTLVLYGTA
- cleavage by Furin (SDS-PAGE) [1]: Only pro-WT was processed by Furin generating a smaller fragment of ˜17kDa
- cleavage by Furin (SDS-PAGE) [2]: pro-R58A mutant was not cleaved by Furin
